Assay results: patent US20240383996A1

Tests used:
[1] = target: Human CTLA4 expressed on transfected CHO or Jurkat cells (human) (UniProt P16410); assay: flow cytometry, whole cell binding to human CTLA4-expressing Jurkat cells, Geo MFI
[2] = target: Human OX40 expressed on transfected Jurkat or CHO cells (human) (UniProt P43489); assay: flow cytometry, whole cell binding to human OX40-expressing Jurkat cells, Geo MFI
Chain of Human OX40 expressed on transfected Jurkat or CHO cells (human) (P43489 29-277 limits assumed): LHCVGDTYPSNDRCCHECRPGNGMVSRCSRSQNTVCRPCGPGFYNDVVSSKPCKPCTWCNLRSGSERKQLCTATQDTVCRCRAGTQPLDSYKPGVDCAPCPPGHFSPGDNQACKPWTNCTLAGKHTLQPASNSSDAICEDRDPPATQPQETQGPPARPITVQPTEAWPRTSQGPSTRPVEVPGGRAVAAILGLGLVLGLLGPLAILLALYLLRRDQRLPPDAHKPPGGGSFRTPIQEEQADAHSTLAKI

Chain of Human CTLA4 expressed on transfected CHO or Jurkat cells (human) (P16410 36-222 limits assumed): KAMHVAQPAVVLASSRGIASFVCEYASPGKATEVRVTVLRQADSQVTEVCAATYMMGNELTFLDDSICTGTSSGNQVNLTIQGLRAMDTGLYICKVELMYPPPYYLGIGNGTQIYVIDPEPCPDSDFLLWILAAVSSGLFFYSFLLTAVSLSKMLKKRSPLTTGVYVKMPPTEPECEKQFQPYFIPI

EC50 [1]: 37.4 nM
EC50 [2]: 10.3 nM
Substance: ATOR-1015 analog (reference anti-OX40/CTLA4 bispecific antibody synthesized in-house)
